According to publication PMC11219989:
Values belong to the binder of their own block, whether it stands above or below them.

Tests used:
[1] = target: T1, unknown natural tumor antigen of the autologous tumor organoids of patient CRC2 peptide on (human); assay: CD137 sort of CD8+ oeT cells after 24 h restimulation with autologous tumor organoids (cells that express the antigen), single-cell RT-PCR; 0.5% in TIL alone; ex vivo sorted cells
[2] = target: T2, unknown natural tumor antigen of the autologous tumor organoids of patient CRC3 peptide on (human); assay: CD137 sort of CD8+ oeT cells after 24 h restimulation with autologous tumor organoids (cells that express the antigen), single-cell RT-PCR; 0.4% in TIL alone; ex vivo sorted cells; conditions: chains alpha TRAV8-6*02 TRAJ20*01 CDR3:beta TRBV6-1*01 TRBJ1-3*01 CDR3
[3] = target: T2, unknown natural tumor antigen of the …; assay: CD137 sort of CD8+ oeT cells after 24 h restimulation with autologous tumor organoids (cells that express the antigen), single-cell RT-PCR; 0% in TIL alone; ex vivo sorted cells; conditions: chains alpha TRAV10*01 TRAJ4*01 CDR3:beta TRBV9*01 TRBJ1-2*01 CDR3
[4] = target: T3, unknown natural tumor antigen of the autologous tumor organoids of patient CRC1 peptide on (human); assay: CD137 sort of CD8+ oeT cells after 24 h restimulation with autologous tumor organoids (cells that express the antigen), single-cell RT-PCR; 2.5% in TIL alone; ex vivo sorted cells; conditions: chains alpha TRAV24*01 TRAJ12*01 CDR3:beta TRBV28*01 TRBJ1-2*01 CDR3
[5] = target: T1, unknown natural tumor antigen of the …; assay: CD137 sort of CD8+ oeT cells after 24 h restimulation with autologous tumor organoids (cells that express the antigen), single-cell RT-PCR; 1.1% in TIL alone; ex vivo sorted cells
[6] = target: T1, unknown natural tumor antigen of the …; assay: CD137 sort of CD8+ oeT cells after 24 h restimulation with autologous tumor organoids (cells that express the antigen), single-cell RT-PCR; 2.8% in TIL alone; ex vivo sorted cells; conditions: chains alpha TRAV23/DV6*01 TRAJ45*01 CDR3:beta TRBV9*01 TRBJ2-1*01 CDR3
[7] = target: T4, unknown natural tumor antigen of the autologous tumor organoids of patient CRC4 peptide on (human); assay: CD137 sort of CD8+ oeT cells after 24 h restimulation with autologous tumor organoids (cells that express the antigen), single-cell RT-PCR; 2.4% in TIL alone; ex vivo sorted cells; conditions: chains alpha TRAV20*01 TRAJ4*01 CDR3:beta TRBV12-3*01 TRBJ1-5*01 CDR3
[8] = target: T3, unknown natural tumor antigen of the …; assay: CD137 sort of CD8+ oeT cells after 24 h restimulation with autologous tumor organoids (cells that express the antigen), single-cell RT-PCR; 1.2% in TIL alone; ex vivo sorted cells; conditions: chains alpha TRAV36/DV7*04 TRAJ30*01 CDR3:beta TRBV6-5*01 TRBJ2-2*01 CDR3
[9] = target: T4, unknown natural tumor antigen of the …; assay: CD137 sort of CD8+ oeT cells after 24 h restimulation with autologous tumor organoids (cells that express the antigen), single-cell RT-PCR; 0% in TIL alone; ex vivo sorted cells
[10] = target: T2, unknown natural tumor antigen of the …; assay: CD137 sort of CD8+ oeT cells after 24 h restimulation with autologous tumor organoids (cells that express the antigen), single-cell RT-PCR; 1.3% in TIL alone; ex vivo sorted cells; conditions: chains alpha TRAV10*01 TRAJ16*02 CDR3:beta TRBV10-3*02 TRBJ2-1*01 CDR3
[11] = target: T3, unknown natural tumor antigen of the …; assay: CD137 sort of CD8+ oeT cells after 24 h restimulation with autologous tumor organoids (cells that express the antigen), single-cell RT-PCR; 3.6% in TIL alone; ex vivo sorted cells; conditions: chains alpha TRAV35*02 TRAJ10*01 CDR3:beta TRBV28*01 TRBJ2-2*01 CDR3
[12] = target: T2, unknown natural tumor antigen of the …; assay: CD137 sort of CD8+ oeT cells after 24 h restimulation with autologous tumor organoids (cells that express the antigen), single-cell RT-PCR; 3% in TIL alone; ex vivo sorted cells; conditions: chains alpha TRAV14/DV4*01 TRAJ45*01 CDR3:beta TRBV20-1*01 TRBJ2-1*01 CDR3
[13] = target: T3, unknown natural tumor antigen of the …; assay: CD137 sort of CD8+ oeT cells after 24 h restimulation with autologous tumor organoids (cells that express the antigen), single-cell RT-PCR; 4.3% in TIL alone; ex vivo sorted cells; conditions: chains alpha TRAV35*02 TRAJ10*01 CDR3:beta TRBV6-1*01 TRBJ1-2*01 CDR3

B1: TCR10 (peptide)
chain 1: AASPPGGSQGNLI
chain 2: ASSHRTSSRGEQF
- frequency among sorted CD8+CD137+ PDO(T)-oeT cells ([1]; chains alpha TRAV13-1*01 TRAJ42*01 CDR3:beta TRBV4-1*01 TRBJ2-1*01 CDR3): 3.1%

B2: TCR15 (peptide)
chain 1: AVSGRSNDYKLS
chain 2: ASSEKRQGAGNTIY
- frequency among sorted CD8+CD137+ PDO(T)-oeT cells [2]: 3%

B6: TCR8 (peptide)
chain 1: ALKAGGGASKLT
chain 2: ASSVGGGVDEQF
- frequency among sorted CD8+CD137+ PDO(T)-oeT cells [6]: 9.3%

B7: TCR17 (peptide)
chain 1: AVFSGGYNKLI
chain 2: ASSLEFYSNQPQH
- frequency among sorted CD8+CD137+ PDO(T)-oeT cells [7]: 13.5%

B9: TCR7 (peptide)
chain 1: AMREGADSWGKFQ
chain 2: ASSLHGRGDEKLF
- frequency among sorted CD8+CD137+ PDO(T)-oeT cells ([1]; chains alpha TRAV14/DV4*03 TRAJ24*03 CDR3:beta TRBV28*01 TRBJ1-4*01 CDR3): 12.4%

B10: TCR19 (peptide)
chain 1: AVGRGYGQNFV
chain 2: ASSQDGGLNEKLF
- frequency among sorted CD8+CD137+ PDO(T)-oeT cells ([9]; chains alpha TRAV22*01 TRAJ26*01 CDR3:beta TRBV4-3*01 TRBJ1-4*01 CDR3): 7.7%

B11: TCR12 (peptide)
chain 1: VSGFSDGQKLL
chain 2: ATTKTGERPDEQF
- frequency among sorted CD8+CD137+ PDO(T)-oeT cells [10]: 8%

B12: TCR6 (peptide)
chain 1: AVGDNFNKFY
chain 2: ASSYVGNTGELF
- frequency among sorted CD8+CD137+ PDO(T)-oeT cells ([5]; chains alpha TRAV8-3*01 TRAJ21*01 CDR3:beta TRBV28*01 TRBJ2-2*01 CDR3): 13.4%

B13: TCR2 (peptide)
chain 1: AGVTGGGNKLT
chain 2: ASSLTSASGELF
- frequency among sorted CD8+CD137+ PDO(T)-oeT cells [11]: 17.8%

B14: TCR20 (peptide)
chain 1: AENMGFQKLV
chain 2: AWTQGANGYT
- frequency among sorted CD8+CD137+ PDO(T)-oeT cells ([9]; chains alpha TRAV13-2*01 TRAJ8*01 CDR3:beta TRBV30*01 TRBJ1-2*01 CDR3): 7.1%

Second part, the binder after the results:

- frequency among sorted CD8+CD137+ PDO(T)-oeT cells [3]: 4%
B3: TCR14 (peptide)
chain 1: VVSFSGGYNKLI
chain 2: ASSVGDRDYGYT

- frequency among sorted CD8+CD137+ PDO(T)-oeT cells [4]: 6.7%
B4: TCR3 (peptide)
chain 1: APWMDSSYKLI
chain 2: ASSIGGHDGYT

- frequency among sorted CD8+CD137+ PDO(T)-oeT cells ([5]; chains alpha TRAV1-2*01 TRAJ6*01 CDR3:beta TRBV28*01 TRBJ2-2*01 CDR3): 8.2%
B5: TCR9 (peptide)
chain 1: AVRGTLSGGSYIPT
chain 2: ASSATSASGELF

- frequency among sorted CD8+CD137+ PDO(T)-oeT cells [8]: 5%
B8: TCR5 (peptide)
chain 1: AVSRDDKII
chain 2: ASSYVGNTGELF

- frequency among sorted CD8+CD137+ PDO(T)-oeT cells ([9]; chains alpha TRAV3*01 TRAJ31*01 CDR3:beta TRBV9*01 TRBJ2-3*01 CDR3): 10.3%
B15: TCR18 (peptide)
chain 1: AVRDEGARLM
chain 2: ASSIFSGTGGADTQY

- frequency among sorted CD8+CD137+ PDO(T)-oeT cells [12]: 4%
B16: TCR13 (peptide)
chain 1: ANDSGGGADGLT
chain 2: SARGLLGGRAREQF

- frequency among sorted CD8+CD137+ PDO(T)-oeT cells [13]: 25.6%
B17: TCR1 (peptide)
chain 1: AGVTGGGNKLT
chain 2: ASSEGTGFYGYT
